The chains are these.
T1: B7H3 on the cell surface (PC9 cells; 293T-B7H3 cells) (UniProt Q5ZPR3 29-534, limits assumed)
T1 construct: whole, on cells; both carry B7H3 on the surface; also called Cell Surface B7H3; B7H3 protein in PC9 cells
T1 sequence (looked up): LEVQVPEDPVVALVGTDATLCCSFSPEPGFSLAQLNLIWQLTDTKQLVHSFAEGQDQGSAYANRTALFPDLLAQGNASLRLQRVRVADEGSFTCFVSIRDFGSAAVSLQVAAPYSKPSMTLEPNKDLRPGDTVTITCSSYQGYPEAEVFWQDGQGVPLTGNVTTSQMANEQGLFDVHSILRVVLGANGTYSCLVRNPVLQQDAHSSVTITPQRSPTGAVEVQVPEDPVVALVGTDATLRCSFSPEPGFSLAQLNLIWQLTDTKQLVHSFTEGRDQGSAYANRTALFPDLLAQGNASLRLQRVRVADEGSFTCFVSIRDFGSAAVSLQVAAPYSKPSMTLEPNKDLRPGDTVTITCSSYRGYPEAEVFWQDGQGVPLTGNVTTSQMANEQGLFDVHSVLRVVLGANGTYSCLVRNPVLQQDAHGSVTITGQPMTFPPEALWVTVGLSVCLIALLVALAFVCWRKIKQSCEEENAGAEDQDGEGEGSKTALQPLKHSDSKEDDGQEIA

T2: Human B7H3 extracellular domain and mFc fusion protein (B7H3-ECD-mFc) (human, UniProt Q5ZPR3 29-466)
T2 construct: extracellular domain; also called B7H3-mFc; B7H3-mFc Protein; not shown: mouse Fc (mFc)
T2 sequence (looked up): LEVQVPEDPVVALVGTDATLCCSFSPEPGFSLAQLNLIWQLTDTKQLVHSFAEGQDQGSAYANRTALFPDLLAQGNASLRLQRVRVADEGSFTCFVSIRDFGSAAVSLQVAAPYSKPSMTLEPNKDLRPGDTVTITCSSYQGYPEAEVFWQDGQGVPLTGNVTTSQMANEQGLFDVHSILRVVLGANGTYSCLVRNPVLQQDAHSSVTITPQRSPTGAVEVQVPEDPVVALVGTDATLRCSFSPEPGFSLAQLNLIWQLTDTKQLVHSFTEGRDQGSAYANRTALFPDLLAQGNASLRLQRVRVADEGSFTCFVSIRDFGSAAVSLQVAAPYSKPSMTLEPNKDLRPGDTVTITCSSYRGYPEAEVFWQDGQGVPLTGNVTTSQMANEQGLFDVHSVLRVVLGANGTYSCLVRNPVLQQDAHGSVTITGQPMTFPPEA

T3: B7H3-hFc (UniProt Q5ZPR3 29-466, limits assumed)
T3 construct: Construct limits, linker and Fc not described; also called B7H3-hFc protein; not shown: human Fc (hFc)
T3 sequence (looked up): T2 sequence (looked up)

B1: hu5B6 (antibody, IgG1, V domains shown)
VH: QVQLVQSGAEVKKPGSSVKVSCKASGYTFITYTIHWVRQAPGQGLEWIGYINPTSDYANFNQKFKDRATLTADKSTSTAYMELSSLRSEDTAVYYCARWGTTVFQFYFDYWGQGTLVTVSS
VL: EIVLTQSPATLSLSPGERATLSCRASQSLSYINWYQQKPGKAPKPWIYATSSLQSGVPSRFSGSASGTDYTLTISSLQPEDFATYYCQHWSSDPPTIGGGTKVEIK
notes: expressed in 293 cells; also called humanized antibody 5B6; humanized 5B6
B2: hu2A9 (antibody, IgG1, V domains shown)
VH: QVQLVQSGAEVKKPGASVKVSCKTSGYTFTEYIMHWVRQAPGQGLEWIGGINPNSGGTTYNEKFKGRATLTVDKSISTAYMELSRLRSDDTAVYYCARRMPYWYFDVWGQGTMVTVSS
VL: EIVLTQSPATLSLSPGERATLSCSASSSVSYIHWYQQKPGQAPRRWVYDTSKLASGIPARFSGSGSGTDYTLTISSLEPEDFAVYYCQQWVSNPLTFGQGTKLEIK
notes: expressed in 293 cells; also called humanized antibody 2A9; humanized 2A9
B3: hu9C8 (antibody, IgG1, V domains shown)
VH: QVQLVQSGAEVKKPGASVKVSCKASGYTFTEYTIHWVRQAPGQGLEWIGGINPNSGGTTYNLKFKGRATLTVDKSTSTVYMELSSLRSEDTAVYYCARKEGFFTTDYWGQGTLVTVSS
VL: B2 VL with I2T, V29L, V47I, K52N, S55T, V91H, S92Y, L95P, Q99G, L103V
notes: expressed in 293 cells; also called humanized antibody 9C8; humanized 9C8
B4: hu4F11 (antibody, IgG1, V domains shown)
VH: QVQLVQSGAEVKKPGASVKVSCKTSGYTFTEYIMHWVRQAPGQGLEWIGGINPNTGGITYNQKFKDRATLTVDKSISTAYMELSRLRSDDTAVYYCARAGGNFLWYFDVWGQGTMVTVSS
VL: B2 VL with I32M, V47L, V91N
notes: expressed in 293 cells; also called humanized antibody 4F11; humanized 4F11
B5: hu7B7 (antibody, IgG1, V domains shown)
VH: EVQLVESGGGLVKPGGSLRLSCAASGFTFSSYAVSWVRQAPGKGLEWVASISGGGIYIYYPDSVKGRFTISRDNAKNSLYLQMNSLRAEDTAVYYCARHGGAGYFDYWGQGTLVTVSS
VL: DSQMTQSPSSLSASVGDRVTITCRGSESVHSYLAWYQQKPGKAPKLLVYNAKTLQSGVPSRFSGSGSGTDFTLTISSLQPEDFATYYCQQHYGSPPWTFGGGTKVEIK
notes: expressed in 293 cells; also called humanized antibody 7B7
B6: hu15A2 (antibody, IgG1, V domains shown)
VH: QVQLVQSGAEVKKPGASVKVSCKASGYTFTSYDINWVRQATGQGLEWIGWIDPGDGSTKYNEKFKGRATLTANKSISTAYMELSSLRSEDTAVYYCVRRGFDYWGQGTLVTVSS
VL: EIVLTQSPATLSLSPGERATLSCRTSSSVSYLHWFQQKPGQAPRLWIHDTSNLASGFPARFSGSGSGTDYTLTISSLEPEDFAVYYCHQRSSYPWTFGGGTKVEIK
notes: expressed in 293 cells; also called humanized antibody 15A2
B7: 2A9 (antibody, mouse IgG2b, V domains shown)
VH: EVQLQQSGPELVKPGASVKISCKTSGYTFTEYIMHWVKQSRGKSLEWIGGINPNSGGTTYNEKFKGKATLTVDKSASTAYMELRSLTSEDSAIYYCARRMPYWYFDVWGAGTTVTVSS
VL: QIVLTQSPAIMSASPGEKVTMTCSASSSVSYIHWYRQKSGTSPKRWVYDTSKLASGVPARFSGSGSGTSYSLTISSMEAEDAATYYCQQWVSNPLTFGAGTKLELK
notes: Murine hybridoma antibody; also called B7H3 hybridoma monoclonal antibody 2A9
B8: 7E6 (antibody, mouse IgG1, V domains shown)
VH: QVQLQQSGPELVRPGVSVKISCKGSGYTFTDYAMHWVKQSHAKSLEWIGVINSYYGNTHYNQKFKGKATMTVDKSSSTAYMELARLTSEDSAIYYCARAGGYSYGSSYRPDRFAYWGQGTLVIVSA
VL: DIQMTQSPASQSASLGESVTITCLASQTIGTWLAWYQQKPGKSPQLLIYAATNLADGVPSRFSGSGSGTKFSFKISSLQAEDFVSYYCQQLYSTPYTFGGGTKLEIK
notes: Murine hybridoma antibody; also called B7H3 hybridoma monoclonal antibody 7E6
B9: 7C9 (antibody, mouse IgG1, V domains shown)
VH: EVQLQQSGTELVRPGALVKLSCKASALNIKDFYMHWVKQRPERGLEWIGWIDPDNGNTIYDPKFQGKASITADISSSTAYLQLSSLTSEDTAVYYCARSSTRQRPFDYWGQGTTLTVSS
VL: DIVMTQSHKVMSTSVGDRVSITCKASQDVRTGVAWYQQKPGQSPKLLIYSAFYRYTGVPDRFTVSGSGADFTFTITSVQAEDLAVYYCQQYYSIPWTFGGGTKLEIK
notes: Murine hybridoma antibody; also called B7H3 hybridoma monoclonal antibody 7C9
B10: 7B7 (antibody, mouse IgG2b, V domains shown)
VH: EVKLVESGGGLVRPGGSLKLSCAASGFTFSSYAVSWVRQTPEKRLEWVASISGGGIYIYYPDSVKGRFTISRDNAKNNLYLQMNSLTPDDTALYYCARHGGAGYFDYWGQGTTLTVSS
VL: DSLMTQSPASLSASVGETVTITCRGSESVHSYLAWYQQKQGKSPQLLVYNAKTLQSGVPSRFSGSGSGTQFSLRINSLQPEDFGTYYCQQHYGSPPWTFGGGTILEIK
notes: Murine hybridoma antibody; also called B7H3 hybridoma monoclonal antibody 7B7
B11: 15A2 (antibody, mouse IgG1, V domains shown)
VH: QVQLQQSGPEVVKPGALVRISCKASGYTFTSYDINWVKQRPGQGLEWIGWIDPGDGSTKYNEKFKGKATLTADKSSSTAYMQFSSLTSENSAVYFCVRRGFDYWGQGTTLTVSS
VL: QILLTQSPAIMSASPGEKVTMTCRTSSSVSYLHWFQQKPGSSPKLWIHDTSNLASGFPARFSGSGSGTSYSLIISSMEAEDAATYYCHQRSSYPWTFGGGTKLEIK
notes: Murine hybridoma antibody; also called B7H3 hybridoma monoclonal antibody 15A2

Changes are numbered by the printed parent chain.

In one test the target is T1, B7H3 on the cell surface (PC9 cells; …). In words: FACS, cell surface B7H3 (PC9 cells per FIG. 10). (In general: Flow cytometry measures light scatter and fluorescence of single cells or particles in a stream.)
A word on the EC50: it is the midpoint of the concentration-response curve. The low end stands for greater potency, the high end for weaker potency. Turning to B1, the half-maximal effective concentration (EC50) stood at 0.0621 µg/mL.
B2 came in with an EC50 of 0.14 µg/mL.
B3 displayed an EC50 of 0.079 µg/mL.
Molecule B4 showed an EC50 of 0.127 µg/mL.
Turning to B5, it took 0.0113 µg/mL to reach a half-maximal effect (EC50).
With B6, it took 0.0143 µg/mL to reach a half-maximal effect (EC50).

Another test shares this target. In words: FACS on cells carrying B7H3 (PC9 per FIG. 2; 293T-B7H3 per method).
For the molecule B7, the EC50 turned out to be 0.186 µg/mL.
In turn, B8 returned a concentration giving a half-maximal response (EC50) of 0.0526 µg/mL.
The same measure, in the same setting: for B9 the value was 0.103 µg/mL.
B10 gave a concentration for a half-maximal effect (EC50) of 0.179 µg/mL.
Regarding B11, the EC50 is 0.0062 µg/mL.

The target of a further test is T2, Human B7H3 extracellular domain and mFc …. In words: ELISA, B7H3-mFc protein (table title), humanized IgG1.
Consider B1, for which the midpoint of the response, the EC50, lay at 0.0127 µg/mL.
Same read-out and setting: for B2 the value was 0.0175 µg/mL.
B3: a half-maximal effect (EC50) was put at 0.0199 µg/mL.
B4 registered an EC50 of 0.0406 µg/mL.
Regarding B5, the concentration giving a half-maximal response (EC50) turned out to be 0.00635 µg/mL.
As for B6, the half-maximal effective concentration (EC50) was determined as 0.00384 µg/mL.

Another test has as its target T3, B7H3-hFc. Put plainly: ELISA, B7H3-hFc coated plate, purified hybridoma antibody. As for the experimental part:
(1) Screening of B7H3-binding positive clones through ELISA: 50 μL of B7H3-hFc (final concentration: 2 μg/mL) was used to coat each well of a 96-well ELISA plate (Corning, Cat. No.: 9018), and incubated overnight at room temperature. After the ELISA plate was rinsed with washing buffer (PBS+0.05% Tween20) 3 times, blocking buffer (PBS+2% BSA (Sigma, Cat. No.: V90093)) was added and the ELISA plate was incubated at room temperature for 1 hour. The ELISA plate was rinsed with washing buffer 3 times; and hybridoma supernatant was added, and the ELISA plate was incubated at room temperature for 1 hour and rinsed 3 times. 100 μL of 10,000-fold diluted HRP-conjugated goat anti-mouse IgG secondary antibody (Thermo, Cat. No.: 31432) was added to each well, and the ELISA plate was incubated at room temperature for 1 hour in the dark and rinsed 3 times. 100 μL of TMB (Biocytogen, Cat. No.: ES-002) was added to each well, and the ELISA plate was incubated at room temperature for color development for 2 minutes, 100 μL of reaction terminating solution (2N H2SO4) was added to each well to terminate the color reaction, and an OD450 value of each well was read using a microplate reader (Tecan Spark). (2) Screening of B7H3-binding positive clones through FACS: 50 μL of the positive hybridoma supernatant or purified hybridoma antibody in the foregoing test was mixed with 50 μL of 293T-B7H3 cells (2×10⁵ cells/well), and a resulting mixture was added to a 96-well plate with a U-shaped bottom and left standing at 4° C. for 1 hour, the 96-well plate was rinsed with FACS buffer (PBS+3% FCS) and centrifuged twice, then 400-fold diluted PE-labeled goat anti-mouse secondary antibody (Biolegend, Cat. No.: 405307) was added, the 96-well plate was incubated at 4° C. for 30 minutes in the dark, rinsed with FACS buffer and centrifuged twice, and signal values of the cells in a PE channel were detected by using BD Accuri C6 flow cytometer. (3) Subcloning: Positive multiclonal hybridoma cells identified by ELISA and FACS were subcloned using the limiting dilution method. The subclones were further detected and screened using ELISA and FACS to obtain positive hybridoma monoclonal clones.
ELISA and FACS were conducted to detect the binding ability of purified antibody samples to B7H3. Results are shown in FIG. 1(a-b), FIG. 2(a-b) and Table 1.
B7 returned a half-maximal effective concentration (EC50) of 0.00624 µg/mL.
Take B8: the midpoint of the response, the EC50, lay at 0.00449 µg/mL.
The same measure, in the same setting: in the case of B9 it was 0.0099 µg/mL.
Same read-out and setting: for B10 the value was 0.0097 µg/mL.
For B11, the midpoint of the response, the EC50, lay at 0.00151 µg/mL.
